To fix the notation:
B1: Azoarcus group I ribozyme (parent)
chain: GUGCCUUGCGCCGGGAAACCACGCAAGGGAUGGUGUCAAAUUCGGCGAAACCUAAGCGCCCGCCCGGGCGUAUGGCAACGCCGAGCCAAGCUUCGGCGCCUGCGCCGAUGAAGGUGUAGAGACUAGACGGCACCCACCUAAGGCAAACGCUAUGGUGAAGGCAUAGUCCAGGGAGUGGCGAAAGUCACACAAACCGG

The variants in the data set derive from B1. Briefly: reverse-splicing fitness (ratio to wild type); higher = more active; in vitro selection; Mg2+ level not given. Summed up: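 An in vitro group I ribozyme library with randomized positions was T7-transcribed and gel-purified. In triplicate, 10 pmol RNA in EPPS pH 7.5 was reacted with 50 pmoles of a 30-nt RNA substrate for 1 h at 37 °C across several added MgCl2 levels (1–48 mM), then stopped with EDTA. Products were reverse transcribed from a substrate-complementary primer, PCR-amplified and sequenced (HiSeq 4000). Fitness is a variant's read proportion after selection over that before, normalised to wild type.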
For the variant C82G A120G A145G C150G C169U U176A, the reverse-splicing fitness amounted to 0.0131.
With C82G A120G A145G C150G C169U U176C, the reverse-splicing fitness was 0.0139.
Take C82G A120U A145G C150A C169A U176C: the reverse-splicing fitness was found to be 0.00287.
For C82G A120U A145G C150A C169A U176A, the reverse-splicing fitness stood at 0.00645.
As to C82G A120G A145C C150U C169U U176C, the reverse-splicing fitness was 0.0138.
Turning to C82G A120G A145C C150U C169U U176A, the reverse-splicing fitness turned out to be 0.0184.
For the variant C82G A120G A145C C150U C169U U176G, the reverse-splicing fitness was determined as 0.00404.
Turning to C82G A120G A145G C150U C169G U176C, the reverse-splicing fitness came out at 0.0245.
Take C82G A120G A145G C150U C169G U176A: the reverse-splicing fitness worked out at 0.0169.
Next, C82G A120G A145G C150U C169G U176G: 0.00428; C82G A120C U176A: 0.0764.
Regarding C82G A120C U176G, the reverse-splicing fitness was 0.0151.
For C82G A120C U176C the value was 0.107; for C82G A120G A145U C150G C169U U176C, 0.0129; for C82G A120G A145U C150G C169U U176A, 0.0125.
Next, C82G A120G A145U C150G C169U U176G: 0.00487.
On to C82G A120U A145C, for which the reverse-splicing fitness worked out at 0.204.
As to C82G A120U A145G, the reverse-splicing fitness was 0.229.
On to C82G A120G C150G C169U U176G, for which the reverse-splicing fitness is 0.00645.
For the variant C82G A120G C150G C169U U176C, the reverse-splicing fitness came out at 0.0158.
C82G A120G C150G C169U U176A: the reverse-splicing fitness turned out to be 0.0113.
With C82G A120U A145C C150U C169G U176A, the reverse-splicing fitness turned out to be 0.00262.
In the case of C82G A120U A145C C150U C169G U176G, the reverse-splicing fitness was 0.00162.
Take C82G A120U A145C C150U C169G U176C: the reverse-splicing fitness was 0.00277.
For C82G A120G A145G C150A C169G U176C the value was 0.0296; for C82G A120G A145G C150A C169G U176A, 0.0188; for C82G A120G A145G C150A C169G U176G, 0.00507.
Turning to C82G A120G A145G C150U C169A U176G, the reverse-splicing fitness came to 0.00521.
For C82G A120G A145G C150U C169A U176C, the reverse-splicing fitness turned out to be 0.0181.
For C82G A120G A145G C150U C169A U176A the value was 0.0171; for C82G A120G A145G C169G U176A, 0.0221.
For C82G A120G A145G C169G U176G the value was 0.00379; for C82G A120G A145G C169G U176C, 0.0345.
Regarding C82G A120U A145C C150U C169A, the reverse-splicing fitness was 0.00185.
Take C82G A120U A145C C150U C169G: the reverse-splicing fitness was 0.003.
For C82G A120U A145C C150U C169U the value was 0.00351.
For C82G A120G A145U C169U U176G, the reverse-splicing fitness came to 0.00349.
C82G A120G A145U C169U U176C: the reverse-splicing fitness was 0.0176.
As for C82G A120G A145U C169U U176A, the reverse-splicing fitness was 0.0203.
Regarding C82G A120U, the reverse-splicing fitness stood at 0.251.
On to C82G A120G, for which the reverse-splicing fitness turned out to be 0.029.
Regarding C82G A120U A145C C150G C169G U176C, the reverse-splicing fitness is 0.00209.
With C82G A120U A145C C150G C169G U176A, the reverse-splicing fitness came out at 0.00247.
Next, C82G A120U A145C C150G C169G U176G: 0.00178; C82G A120G C150A C169G: 0.0133; C82G A120G C150A C169A: 0.0117.
For C82G A120G C150A C169U, the reverse-splicing fitness came out at 0.00945.
As to C82G A120G A145C C150G U176C, the reverse-splicing fitness was 0.00894.
As for C82G A120G A145C C150G U176A, the reverse-splicing fitness was found to be 0.00713.
Regarding C82G A120G A145C C150G U176G, the reverse-splicing fitness amounted to 0.00333.
Take C82G A120G A145G C169U U176A: the reverse-splicing fitness came out at 0.0208.
For C82G A120G A145G C169U U176G, the reverse-splicing fitness was determined as 0.00391.
With C82G A120G A145G C169U U176C, the reverse-splicing fitness is 0.0199.
In the case of C82G A120G A145G C150U C169G, the reverse-splicing fitness stood at 0.04.
Next, C82G A120G A145G C150U C169U: 0.0236; C82G A120G A145G C150U C169A: 0.0266; C82G A120U A145C C150G: 0.0203.
For C82G A120U A145C C150U the value was 0.0385; for C82G A120U A145C C150A, 0.00856; for C82G A120C C169G U176G, 0.00385.
For C82G A120G A145G C150G, the reverse-splicing fitness is 0.00886.
As to C82G A120G A145G C150A, the reverse-splicing fitness was found to be 0.0107.
Regarding C82G A120G A145G C150U, the reverse-splicing fitness was determined as 0.0247.
As for C82G A120G A145G C150A C169U, the reverse-splicing fitness worked out at 0.011.
With C82G A120G A145G C150A C169A, the reverse-splicing fitness was determined as 0.0126.
For C82G A120G A145G C150A C169G the value was 0.0133; for C82G A120G A145C C169G U176G, 0.00393; for C82G A120G A145C C169G U176A, 0.0291.
Consider C82G A120G A145C C169G U176C, for which the reverse-splicing fitness turned out to be 0.0224.
Regarding C82G A120G A145U C150U C169U U176G, the reverse-splicing fitness amounted to 0.00413.
Regarding C82G A120G A145U C150U C169U U176A, the reverse-splicing fitness was 0.0201.
With C82G A120G A145U C150U C169U U176C, the reverse-splicing fitness is 0.0181.
In the case of C82G A120G A145G C150U C169U U176C, the reverse-splicing fitness worked out at 0.0187.
For the variant C82G A120G A145G C150U C169U U176G, the reverse-splicing fitness came out at 0.00473.
For C82G A120G A145G C150U C169U U176A, the reverse-splicing fitness came to 0.0213.
For the variant C82G A120G A145U C150U C169G U176C, the reverse-splicing fitness worked out at 0.0218.
In the case of C82G A120G A145U C150U C169G U176G, the reverse-splicing fitness is 0.00476.
Next, C82G A120G A145U C150U C169G U176A: 0.015; C82G A120G C150A C169A U176C: 0.0244.
For C82G A120G C150A C169A U176G the value was 0.00604; for C82G A120G C150A C169A U176A, 0.0208.
Regarding C82G A120G A145U C150A C169G U176G, the reverse-splicing fitness is 0.00401.
For C82G A120G A145U C150A C169G U176A, the reverse-splicing fitness came out at 0.0132.
In the case of C82G A120G A145U C150A C169G U176C, the reverse-splicing fitness was 0.0157.

The values above are taken from the RNAGym collection of RNA variant scans (doi:10.1093/molbev/msab373).
